Measurements from US20140302055A1.

Columns and labels:
[1] = biological target: Angiopoietin-like protein 4 (ANGPTL4), recombinant V5-his tagged secreted product (UniProt Q9BY76); experiment: SPR (BiaCore) low resolution, mAb captured on goat anti-human surface, ANGPTL4 at 292 nM, 25 C
[2] = biological target: Angiopoietin-like protein 4 (ANGPTL4), recombinant V5-his tagged secreted product (UniProt Q9BY76); experiment: SPR (BiaCore 2000) medium resolution, mAb captured on goat anti-human surface, ANGPTL4 6-198 nM (593 nM left out of the fit), 1:1 model with mass transport

B1: anti-ANGPTL4 monoclonal antibody 1.3.1 (antibody, part only; not given: light chain, human IgG2, V domains shown, part only)
VH: EVQLVESGGGLIQPGGSLRLSCAASGFTVSTNYMSWVRQAPGKGLDWVSIIYSDDNTYYADSVKGRFTISRDNSKNTLYLQMNSLRAEDSAVYYCAGTGTTDYYYGLDVWGLGTTVTVSSA
- Kd [1]: 15 nM
- koff [1]: 0.00071 s⁻¹
- kon [1]: 49000 M⁻¹ s⁻¹

B2: anti-ANGPTL4 monoclonal antibody 1.7.3 (antibody, human IgG2, V domains shown)
VH: QVQLVESGGGVVQPGRSLRLSCAASGFTFSSYGIHWIRQAPGKGLEWVAVIWYDGSHKYYADSVKGRFTISRDNSKNTLYLQMNSLRAEDTAVYYCARDGITMVRGVLYYFYGMDVWGQGTTVTVSS
VL: DIQMTQSPSSLSASVGDRVTITCRASQGISNYLAWYQQKPGKVPKLLIYAASTLQSGVPSRFSGSGSGTDFTLTISSLQPEDFATYYCQEFNSAPLTFGGGTKVEIKR
- Kd [2]: 7.9 nM
- koff [2]: 0.000786 s⁻¹
- kon [2]: 99800 M⁻¹ s⁻¹
- Kd [1]: 16 nM
- koff [1]: 0.0011 s⁻¹
- kon [1]: 67000 M⁻¹ s⁻¹

B3: anti-ANGPTL4 monoclonal antibody 1.10.2 (antibody, human IgG2, V domains shown)
VH: QVQLVQSGAEVKKPGASVKDSCKASGFTFTSYGISWVRQAPGQGLEWMGWISAYNGNKNYAQKLQGRVTMTTDTSTSTAYMELRSLRSDDTAVYYCARDDCSRASCSYYYGMDVWGQGTAVTVSS
VL: DIVMTQTPLSLAVTPGQPASISCKSSQSLLHSDRKTYLYWYLQKPGQPPQLLIYEVSNRFSGVPDRFSGSGSGTDFTLKISRVEAEDVGVYYCMQSIQLPWTFGQGTKVEIKR
- Kd [1]: 11 nM
- koff [1]: 0.00068 s⁻¹
- kon [1]: 63000 M⁻¹ s⁻¹
